Experimental data: US20140221283A1 (INDIANA UNIVERSITY RESEARCH AND TECHNOLOGY, published 2014)
*1 amine or outer side, *2 acyl side, *3 side chain or, on linkers, in order; H or OH if unused. Where no end group is shown, it is not given here. Side-chain parts run from the residue outwards. [ ]: non-standard residue; d: D form. The star is where a group is joined. γGlu = O=C(O)[C@H](CCC(=O)[*:2])N[*:1]; Palmitoyl = CCCCCCCCCCCCCCCC(=O)*; Met(O) = CS(=O)CC[C@H](N)C(=O)O; Aib = CC(C)(N)C(=O)O

T1: GIP receptor (assay by the procedure of Example 3)
T1 sequence (P48546 whole entry, species assumed, looked up): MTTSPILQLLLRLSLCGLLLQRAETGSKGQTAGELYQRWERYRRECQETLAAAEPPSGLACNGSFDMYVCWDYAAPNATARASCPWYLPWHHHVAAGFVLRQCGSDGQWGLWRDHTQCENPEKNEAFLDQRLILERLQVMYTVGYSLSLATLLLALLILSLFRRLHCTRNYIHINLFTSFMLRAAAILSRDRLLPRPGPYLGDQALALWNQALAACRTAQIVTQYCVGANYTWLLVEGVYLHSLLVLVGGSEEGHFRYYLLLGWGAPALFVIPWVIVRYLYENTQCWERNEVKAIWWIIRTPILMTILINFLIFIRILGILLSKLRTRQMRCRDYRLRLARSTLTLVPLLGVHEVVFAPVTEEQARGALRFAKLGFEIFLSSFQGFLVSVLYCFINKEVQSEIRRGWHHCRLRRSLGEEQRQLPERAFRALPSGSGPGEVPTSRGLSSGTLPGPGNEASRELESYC

B1: peptide of SEQ ID NO: 16 (peptide)
peptide: H[Aib]QGTFTSDK([γGlu-γGlu-Palmitoyl])SKYLD[Aib]RAAQDFVQWLLDTKQ-OH
modifications: N-terminus assumed
SMILES: CCCCCCCCCCCCCCCC(=O)N[C@@H](CCC(=O)N[C@@H](CCC(=O)NCCCC[C@H](NC(=O)[C@H](CC(=O)O)NC(=O)[C@H](CO)NC(=O)[C@@H](NC(=O)[C@H](Cc1ccccc1)NC(=O)[C@@H](NC(=O)CNC(=O)[C@H](CCC(N)=O)NC(=O)C(C)(C)NC(=O)[C@@H](N)Cc1c[nH]cn1)[C@@H](C)O)[C@@H](C)O)C(=O)N[C@@H](CO)C(=O)N[C@@H](CCCCN)C(=O)N[C@@H](Cc1ccc(O)cc1)C(=O)N[C@@H](CC(C)C)C(=O)N[C@@H](CC(=O)O)C(=O)NC(C)(C)C(=O)N[C@@H](CCCNC(=N)N)C(=O)N[C@@H](C)C(=O)N[C@@H](C)C(=O)N[C@@H](CCC(N)=O)C(=O)N[C@@H](CC(=O)O)C(=O)N[C@@H](Cc1ccccc1)C(=O)N[C@H](C(=O)N[C@@H](CCC(N)=O)C(=O)N[C@@H](Cc1c[nH]c2ccccc12)C(=O)N[C@@H](CC(C)C)C(=O)N[C@@H](CC(C)C)C(=O)N[C@@H](CC(=O)O)C(=O)N[C@H](C(=O)N[C@@H](CCCCN)C(=O)N[C@@H](CCC(N)=O)C(=O)O)[C@@H](C)O)C(C)C)C(=O)O)C(=O)O
B2: peptide of SEQ ID NO: 14 (peptide)
peptide: HSQGTFTSDKSKYLDERAAQDFVQWLLDTKX
modifications: lower-case 's' at position 2 (taken as D-Ser; the table does not explain it); Lys at position 10 acylated as K(γGlu-C16); C-terminal γGlu; C-terminal amide
B3: peptide of SEQ ID NO: 15 (peptide)
peptide: H[Aib]QGTFTSDK([γGlu-γGlu-Palmitoyl])SKYLD[Aib]RAAQDFVQWL[Met(O)]DTKQ-OH
modifications: not fully specified; printed as HaibQGTFTSDK(γGlu-γGlu-C16)SKYLDaibRAAQDFVQWLMornDTKQ-acid

Molecular target: T1, GIP receptor (assay by the procedure of …)
Assay: cell-based or functional assay

Point of comparison: B1, “EC50 (nM) at GIP receptor (procedure of Example 3)” value 1.04 nM. Against it:
- B2 — 940-fold higher, 976 nM
- B3 — 1.8-fold higher, 1.9 nM
- H[Aib]QGTFTSDYSKYLDERRA[Aib]EFVC(40K‑TE PEG)WLLDTK[γGlu]-NH2 [peptide of SEQ ID NO: 13] — 130-fold higher, 140 nM
- H[Aib]QGTFTSDK([γGlu-γGlu-Palmitoyl])SKYLD[Aib]RAAQDFVQWLMDTK[γGlu]-NH2 [peptide of SEQ ID NO: 12] — 12-fold higher, 12.8 nM
